Assay results taken from paper PMC5071567.

Assays:
transthyretin = transthyretin (UniProt P02766); details: cited from earlier work
[1] = molecular target: megalin (LRP-2) (mouse (endogenous in cultured hippocampal neurons)) (UniProt A2ARV4)
Chain of megalin (LRP-2) (mouse (endogenous in cultured hippocampal neurons)) (A2ARV4 26-4660): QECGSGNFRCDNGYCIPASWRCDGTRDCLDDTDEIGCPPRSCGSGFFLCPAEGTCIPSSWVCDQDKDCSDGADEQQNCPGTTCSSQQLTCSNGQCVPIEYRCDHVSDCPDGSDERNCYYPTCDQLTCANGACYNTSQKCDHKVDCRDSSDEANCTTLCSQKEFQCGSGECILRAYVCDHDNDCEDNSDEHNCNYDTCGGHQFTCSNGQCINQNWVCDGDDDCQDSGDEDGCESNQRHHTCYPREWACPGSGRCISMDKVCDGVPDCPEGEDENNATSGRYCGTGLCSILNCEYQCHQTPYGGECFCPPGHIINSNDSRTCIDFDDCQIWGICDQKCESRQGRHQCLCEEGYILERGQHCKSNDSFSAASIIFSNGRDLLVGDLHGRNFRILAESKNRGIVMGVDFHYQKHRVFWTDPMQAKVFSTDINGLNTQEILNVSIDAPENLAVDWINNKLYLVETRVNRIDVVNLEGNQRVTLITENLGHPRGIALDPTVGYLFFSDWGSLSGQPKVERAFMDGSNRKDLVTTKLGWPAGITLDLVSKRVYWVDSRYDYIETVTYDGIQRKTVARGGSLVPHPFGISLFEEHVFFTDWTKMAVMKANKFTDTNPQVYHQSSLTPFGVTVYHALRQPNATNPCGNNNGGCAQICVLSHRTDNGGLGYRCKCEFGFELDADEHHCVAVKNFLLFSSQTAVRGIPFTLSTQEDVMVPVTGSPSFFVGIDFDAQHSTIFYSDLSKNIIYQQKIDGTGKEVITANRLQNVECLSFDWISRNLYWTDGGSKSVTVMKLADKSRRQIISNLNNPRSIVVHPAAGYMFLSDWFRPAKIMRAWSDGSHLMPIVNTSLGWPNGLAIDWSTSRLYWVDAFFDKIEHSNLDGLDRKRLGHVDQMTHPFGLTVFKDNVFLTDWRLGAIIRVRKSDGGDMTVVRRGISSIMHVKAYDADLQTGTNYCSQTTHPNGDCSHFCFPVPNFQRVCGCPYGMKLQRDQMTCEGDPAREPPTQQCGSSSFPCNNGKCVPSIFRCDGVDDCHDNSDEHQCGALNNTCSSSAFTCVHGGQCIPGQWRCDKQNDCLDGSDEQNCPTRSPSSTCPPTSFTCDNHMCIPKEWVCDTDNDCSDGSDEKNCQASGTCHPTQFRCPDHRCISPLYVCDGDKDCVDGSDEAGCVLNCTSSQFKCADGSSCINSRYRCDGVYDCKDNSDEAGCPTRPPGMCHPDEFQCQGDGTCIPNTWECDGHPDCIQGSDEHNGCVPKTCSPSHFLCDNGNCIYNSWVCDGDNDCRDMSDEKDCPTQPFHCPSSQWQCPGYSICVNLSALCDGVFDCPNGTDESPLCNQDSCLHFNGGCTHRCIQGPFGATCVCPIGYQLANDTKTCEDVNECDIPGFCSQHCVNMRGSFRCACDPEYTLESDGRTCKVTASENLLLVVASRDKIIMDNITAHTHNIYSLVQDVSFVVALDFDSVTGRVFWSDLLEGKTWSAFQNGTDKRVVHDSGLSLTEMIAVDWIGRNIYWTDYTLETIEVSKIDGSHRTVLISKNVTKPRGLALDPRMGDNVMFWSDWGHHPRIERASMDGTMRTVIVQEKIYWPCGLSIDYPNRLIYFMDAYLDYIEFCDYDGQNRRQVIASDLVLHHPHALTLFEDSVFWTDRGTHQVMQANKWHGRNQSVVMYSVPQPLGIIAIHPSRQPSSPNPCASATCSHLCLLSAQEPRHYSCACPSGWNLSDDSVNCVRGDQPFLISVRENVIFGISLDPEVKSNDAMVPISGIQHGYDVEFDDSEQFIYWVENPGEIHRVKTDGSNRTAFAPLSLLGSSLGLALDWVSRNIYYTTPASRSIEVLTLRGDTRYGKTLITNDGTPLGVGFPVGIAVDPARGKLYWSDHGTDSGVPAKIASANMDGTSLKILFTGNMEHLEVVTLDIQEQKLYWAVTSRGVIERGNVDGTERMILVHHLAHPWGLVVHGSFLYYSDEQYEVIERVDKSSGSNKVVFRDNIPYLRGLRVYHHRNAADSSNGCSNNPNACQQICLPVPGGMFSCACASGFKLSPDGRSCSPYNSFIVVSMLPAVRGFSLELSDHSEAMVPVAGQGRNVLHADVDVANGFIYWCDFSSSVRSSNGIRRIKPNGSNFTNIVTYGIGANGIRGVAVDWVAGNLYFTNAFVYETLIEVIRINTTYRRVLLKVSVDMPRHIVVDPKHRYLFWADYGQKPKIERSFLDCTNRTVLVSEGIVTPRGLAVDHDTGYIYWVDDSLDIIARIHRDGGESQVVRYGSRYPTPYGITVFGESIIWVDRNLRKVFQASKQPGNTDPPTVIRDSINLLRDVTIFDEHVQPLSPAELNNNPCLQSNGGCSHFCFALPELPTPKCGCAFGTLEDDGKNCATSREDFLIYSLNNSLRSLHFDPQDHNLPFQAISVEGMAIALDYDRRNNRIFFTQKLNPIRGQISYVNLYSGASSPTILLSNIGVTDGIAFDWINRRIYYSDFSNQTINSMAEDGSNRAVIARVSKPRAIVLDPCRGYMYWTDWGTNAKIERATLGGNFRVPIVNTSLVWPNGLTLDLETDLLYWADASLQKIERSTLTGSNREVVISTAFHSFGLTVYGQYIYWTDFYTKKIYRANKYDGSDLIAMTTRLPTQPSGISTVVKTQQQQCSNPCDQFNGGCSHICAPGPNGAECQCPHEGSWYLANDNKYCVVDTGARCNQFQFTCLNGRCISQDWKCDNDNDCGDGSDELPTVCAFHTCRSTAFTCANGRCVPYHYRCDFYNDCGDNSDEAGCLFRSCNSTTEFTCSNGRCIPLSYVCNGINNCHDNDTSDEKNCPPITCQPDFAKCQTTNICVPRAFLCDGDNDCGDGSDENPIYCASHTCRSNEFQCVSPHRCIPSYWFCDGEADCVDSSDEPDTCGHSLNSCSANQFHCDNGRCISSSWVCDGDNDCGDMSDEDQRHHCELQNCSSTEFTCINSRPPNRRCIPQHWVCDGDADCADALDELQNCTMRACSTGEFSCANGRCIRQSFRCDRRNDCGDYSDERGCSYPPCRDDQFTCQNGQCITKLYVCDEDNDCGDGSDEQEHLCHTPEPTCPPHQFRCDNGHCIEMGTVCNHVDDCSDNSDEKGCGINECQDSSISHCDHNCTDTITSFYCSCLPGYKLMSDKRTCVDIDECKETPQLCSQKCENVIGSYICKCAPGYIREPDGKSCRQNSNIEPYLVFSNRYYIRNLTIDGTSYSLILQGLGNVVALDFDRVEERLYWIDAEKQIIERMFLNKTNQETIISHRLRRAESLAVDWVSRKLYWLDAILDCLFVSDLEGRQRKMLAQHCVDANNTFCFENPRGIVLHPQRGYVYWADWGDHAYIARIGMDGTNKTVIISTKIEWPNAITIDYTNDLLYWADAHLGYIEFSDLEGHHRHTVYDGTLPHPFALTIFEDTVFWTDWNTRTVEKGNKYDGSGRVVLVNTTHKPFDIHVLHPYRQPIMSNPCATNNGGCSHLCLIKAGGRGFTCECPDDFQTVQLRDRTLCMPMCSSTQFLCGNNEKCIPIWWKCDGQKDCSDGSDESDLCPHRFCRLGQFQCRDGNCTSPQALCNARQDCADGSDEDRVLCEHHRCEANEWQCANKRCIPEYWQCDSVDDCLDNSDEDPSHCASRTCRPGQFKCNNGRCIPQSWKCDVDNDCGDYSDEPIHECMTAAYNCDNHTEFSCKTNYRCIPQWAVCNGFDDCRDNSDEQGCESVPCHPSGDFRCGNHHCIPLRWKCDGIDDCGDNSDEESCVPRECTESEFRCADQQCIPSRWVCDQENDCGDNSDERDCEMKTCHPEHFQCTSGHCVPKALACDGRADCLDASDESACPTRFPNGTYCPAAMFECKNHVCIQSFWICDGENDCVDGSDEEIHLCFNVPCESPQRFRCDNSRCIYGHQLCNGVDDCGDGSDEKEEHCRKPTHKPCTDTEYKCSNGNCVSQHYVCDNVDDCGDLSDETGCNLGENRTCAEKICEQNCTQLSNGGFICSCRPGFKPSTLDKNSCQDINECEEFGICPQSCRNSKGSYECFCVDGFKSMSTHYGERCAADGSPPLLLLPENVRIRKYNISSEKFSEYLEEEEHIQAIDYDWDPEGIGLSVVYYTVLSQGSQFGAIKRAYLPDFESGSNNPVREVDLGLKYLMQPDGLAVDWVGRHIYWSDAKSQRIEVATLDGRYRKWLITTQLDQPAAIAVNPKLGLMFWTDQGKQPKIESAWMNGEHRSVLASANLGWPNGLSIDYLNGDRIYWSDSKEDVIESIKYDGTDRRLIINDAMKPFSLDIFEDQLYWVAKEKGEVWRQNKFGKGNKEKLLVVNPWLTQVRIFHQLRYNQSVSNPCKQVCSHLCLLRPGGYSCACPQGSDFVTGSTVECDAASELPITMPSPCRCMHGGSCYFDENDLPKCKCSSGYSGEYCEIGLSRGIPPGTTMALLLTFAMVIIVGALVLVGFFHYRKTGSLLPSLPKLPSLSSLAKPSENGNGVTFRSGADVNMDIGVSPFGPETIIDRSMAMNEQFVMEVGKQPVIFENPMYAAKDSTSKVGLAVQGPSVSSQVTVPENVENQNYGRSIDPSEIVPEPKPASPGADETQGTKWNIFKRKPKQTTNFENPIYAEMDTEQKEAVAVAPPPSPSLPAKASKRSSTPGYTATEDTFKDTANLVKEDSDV

activation of Src (phospho-Tyr416) by western blot in TTR KO cultured hippocampal neurons, 30 min after mouse TTR (55 μg/ml) [1] [%] | rise of CREB phosphorylation (Ser133) by western blot in TTR KO cultured hippocampal neurons stimulated with mouse TTR (55 μg/ml) [1] [%] | rise of phosphorylated Akt (Ser473) by western blot in TTR KO cultured hippocampal neurons, 30 min after mouse TTR (55 μg/ml) [1] [%] | rise of phosphorylated ERK by western blot in TTR KO cultured hippocampal neurons, 30 min after mouse TTR (55 μg/ml) [1] [%] | Substance | Kd (transthyretin) [nM]
 |  |  |  | megalin (from UniProt P98164) | 500
30 to 50 | 20 | 23 | 35 | recombinant mouse transthyretin (from UniProt P07309 21-147) (ligand) | 
